{"source": "patent US20120135912A1", "about": "(PERSEID THERAPEUTICS, published 2012)", "target": "T1, human VLA4-Fc (alpha4-Fc/beta1-Fc heterodimer) (human)", "T1 construct": "Soluble heterodimer from CHO cells, Protein A purified; also called VLA-Fc", "T1 sequence (chain, as listed by the source limits assumed, form in doubt, chain 1 of 2)": "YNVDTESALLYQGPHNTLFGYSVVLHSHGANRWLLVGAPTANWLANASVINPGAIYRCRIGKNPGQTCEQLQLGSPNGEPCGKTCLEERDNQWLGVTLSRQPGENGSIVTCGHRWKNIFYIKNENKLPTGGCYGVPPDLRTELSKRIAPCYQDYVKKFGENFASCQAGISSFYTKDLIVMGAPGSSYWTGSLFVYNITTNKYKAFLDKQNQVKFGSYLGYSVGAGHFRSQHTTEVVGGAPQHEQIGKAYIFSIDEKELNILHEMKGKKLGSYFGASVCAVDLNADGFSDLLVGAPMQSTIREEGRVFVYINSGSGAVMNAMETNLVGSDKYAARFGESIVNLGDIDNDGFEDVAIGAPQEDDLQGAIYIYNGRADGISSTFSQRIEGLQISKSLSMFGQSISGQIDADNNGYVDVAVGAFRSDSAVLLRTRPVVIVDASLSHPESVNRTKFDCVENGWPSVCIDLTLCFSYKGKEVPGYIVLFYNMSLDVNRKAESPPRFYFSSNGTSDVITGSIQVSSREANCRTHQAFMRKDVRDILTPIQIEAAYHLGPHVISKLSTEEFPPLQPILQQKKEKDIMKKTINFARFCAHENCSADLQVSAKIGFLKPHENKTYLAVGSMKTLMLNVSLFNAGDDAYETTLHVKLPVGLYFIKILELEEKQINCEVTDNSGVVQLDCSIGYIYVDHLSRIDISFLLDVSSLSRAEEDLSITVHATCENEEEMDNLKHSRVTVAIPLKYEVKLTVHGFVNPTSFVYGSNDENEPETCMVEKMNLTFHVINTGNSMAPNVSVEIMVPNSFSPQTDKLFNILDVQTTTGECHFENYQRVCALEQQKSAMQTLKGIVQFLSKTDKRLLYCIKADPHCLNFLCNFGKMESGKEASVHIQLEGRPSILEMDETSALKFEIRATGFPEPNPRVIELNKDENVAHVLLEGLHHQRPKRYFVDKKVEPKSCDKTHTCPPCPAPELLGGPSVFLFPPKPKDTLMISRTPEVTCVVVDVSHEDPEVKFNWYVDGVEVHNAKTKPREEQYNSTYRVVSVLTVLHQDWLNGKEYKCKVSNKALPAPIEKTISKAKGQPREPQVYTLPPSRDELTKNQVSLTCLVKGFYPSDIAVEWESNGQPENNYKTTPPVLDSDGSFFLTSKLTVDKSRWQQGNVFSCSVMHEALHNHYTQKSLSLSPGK", "T1 sequence (chain, as listed by the source limits assumed, form in doubt, chain 2 of 2)": "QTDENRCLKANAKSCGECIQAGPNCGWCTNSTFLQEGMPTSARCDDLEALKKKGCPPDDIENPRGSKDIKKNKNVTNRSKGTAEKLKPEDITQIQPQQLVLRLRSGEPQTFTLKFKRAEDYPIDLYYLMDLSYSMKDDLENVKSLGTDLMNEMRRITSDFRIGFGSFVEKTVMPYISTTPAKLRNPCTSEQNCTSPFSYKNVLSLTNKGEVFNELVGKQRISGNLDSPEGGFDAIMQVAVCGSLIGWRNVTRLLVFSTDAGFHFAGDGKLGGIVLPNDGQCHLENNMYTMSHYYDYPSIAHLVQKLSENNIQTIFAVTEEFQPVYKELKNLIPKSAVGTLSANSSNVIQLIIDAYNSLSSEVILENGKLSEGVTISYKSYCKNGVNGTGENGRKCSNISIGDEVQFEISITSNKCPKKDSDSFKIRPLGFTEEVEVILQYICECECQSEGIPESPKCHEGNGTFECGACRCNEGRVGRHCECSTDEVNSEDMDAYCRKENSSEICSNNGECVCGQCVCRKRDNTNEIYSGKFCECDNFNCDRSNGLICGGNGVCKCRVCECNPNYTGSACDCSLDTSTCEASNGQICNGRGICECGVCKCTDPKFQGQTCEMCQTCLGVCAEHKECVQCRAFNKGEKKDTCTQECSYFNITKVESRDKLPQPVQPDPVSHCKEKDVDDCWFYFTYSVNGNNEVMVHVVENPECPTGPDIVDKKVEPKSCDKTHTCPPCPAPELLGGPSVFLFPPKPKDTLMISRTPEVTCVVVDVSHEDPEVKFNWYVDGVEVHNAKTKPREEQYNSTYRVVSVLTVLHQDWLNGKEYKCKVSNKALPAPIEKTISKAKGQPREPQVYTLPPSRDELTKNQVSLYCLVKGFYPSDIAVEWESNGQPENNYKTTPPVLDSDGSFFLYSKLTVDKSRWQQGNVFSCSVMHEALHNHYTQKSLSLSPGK", "assay": "SPR (BIACORE), crude CHO-S supernatant on VLA4-Fc", "data": [{"binder": "146R7 (ligand, Crude CHO-S supernatant, 3x spacer-FLAG tagged) FKIETTPESRYLAQIGDSVSLTCSTTGCESPLFFWRPLLDSPLNGKVTNEGTTSTLTMNPVSFGNEHSYLCTARCESRKLEKGIQVEIYSFPKDPEIHLSGPLEAGKPITVKCSVADVYPFDRLEIDLLKGDHLMKSQEFLEDADRKSLETKSLEVTFTPVIEDIGKVLVCRAKLHIDEMDSVPTVRQAVKELQVYISPGGGSDYKDDDDKGGGSDYKDDDDKGGGSDYKDDDDKGS", "values": [{"measurement": "fold weaker binding relative to 146R0 (KD(variant)/KD(146R0))", "value": 1, "unit": "fold"}]}, {"binder": "146R13 (ligand, Crude CHO-S supernatant, 3x spacer-FLAG tagged) FKIETTPESRYLAQIGDSVSLTCSTTGCESPFFFWRPLLDSPLNGKVTNEGTTSTLTMNPVSFGNEHSYLCTARCESRKLEKGIQVEIYSFPKDPEIHLSGPLEAGKPITVKCSVADVYPFDRLEIDLLKGDHLMKSQEFLEDADRKSLETKSLEVTFTPVIEDIGKVLVCRAKLHIDEMDSVPTVRQAVKELQVYISPGGGSDYKDDDDKGGGSDYKDDDDKGGGSDYKDDDDKGS", "values": [{"measurement": "fold weaker binding relative to 146R0 (KD(variant)/KD(146R0))", "value": 2.3, "unit": "fold"}]}, {"binder": "146R3 (ligand, Crude CHO-S supernatant, 3x spacer-FLAG tagged) FKIETTPESRYLAQIGDSVSLTCSTTGCESPLFFWRTLLDSPLNGKVTNEGTTSTLTMNPVSFGNEHSYLCTARCESRSLEKGIQVEIYSFPKDPEIHLSGPLEAGKPITVKCSVADVYPFDRLEIDLLKGDHLMKSQEFLEDADRKSLETKSLEVTFTPVIEDIGKVLVCRAKLHIDEMDSVPTVRQAVKELQVYISPGGGSDYKDDDDKGGGSDYKDDDDKGGGSDYKDDDDKGS", "values": [{"measurement": "fold weaker binding relative to 146R0 (KD(variant)/KD(146R0))", "value": 1.3, "unit": "fold"}]}, {"binder": "146R4 (ligand, Crude CHO-S supernatant, 3x spacer-FLAG tagged) FKIETTPESRYLAQIGDSVSLTCSTTGCESPLFFWRPQLDSPLNGKVTNEGTTSTLTMNPVSFGNEHSYLCTARCESRSLEKGIQVEIYSFPKDPEIHLSGPLEAGKPITVKCSVADVYPFDRLEIDLLKGDHLMKSQEFLEDADRKSLETKSLEVTFTPVIEDIGKVLVCRAKLHIDEMDSVPTVRQAVKELQVYISPGGGSDYKDDDDKGGGSDYKDDDDKGGGSDYKDDDDKGS", "values": [{"measurement": "fold weaker binding relative to 146R0 (KD(variant)/KD(146R0))", "value": 2.6, "unit": "fold"}]}, {"binder": "146R18 (ligand, Crude CHO-S supernatant, 3x spacer-FLAG tagged) FKIETTPESRYLAQIGDSVSLTCSTTGCESPFFFWRPLIDSPLNGKVTNEGTTSTLTMNPVSFGNEHSYLCTATCESRKLEKGIQVEIYSFPKDPEIHLSGPLEAGKPITVKCSVADVYPFDRLEIDLLKGDHLMKSQEFLEDADRKSLETKSLEVTFTPVIEDIGKVLVCRAKLHIDEMDSVPTVRQAVKELQVYISPGGGSDYKDDDDKGGGSDYKDDDDKGGGSDYKDDDDKGS", "values": [{"measurement": "fold weaker binding relative to 146R0 (KD(variant)/KD(146R0))", "value": 6.3, "unit": "fold"}]}, {"binder": "146R17 (ligand, Crude CHO-S supernatant, 3x spacer-FLAG tagged) FKIETTPESRYLAQIGDSVSLTCSTTGCESPFFFWRPLIDSPLNGKVTNEGTTSTLTMNPVSFGNEHSYLCTARCESRKLEKGIQVEIYSFPKDPEIHLSGPLEAGKPITVKCSVADVYPFDRLEIDLLKGDHLMKSQEFLEDADRKSLETKSLEVTFTPVIEDIGKVLVCRAKLHIDEMDSVPTVRQAVKELQVYISPGGGSDYKDDDDKGGGSDYKDDDDKGGGSDYKDDDDKGS", "values": [{"measurement": "fold weaker binding relative to 146R0 (KD(variant)/KD(146R0))", "value": 2.8, "unit": "fold"}]}, {"binder": "146R15 (ligand, Crude CHO-S supernatant, 3x spacer-FLAG tagged) FKIETTPESRYLAQIGDSVSLTCSTTGCESPFFFWRPQLDSPLNGKVTNEGTTSTLTMNPVSFGNEHSYLCTARCESRKLEKGIQVEIYSFPKDPEIHLSGPLEAGKPITVKCSVADVYPFDRLEIDLLKGDHLMKSQEFLEDADRKSLETKSLEVTFTPVIEDIGKVLVCRAKLHIDEMDSVPTVRQAVKELQVYISPGGGSDYKDDDDKGGGSDYKDDDDKGGGSDYKDDDDKGS", "values": [{"measurement": "fold weaker binding relative to 146R0 (KD(variant)/KD(146R0))", "value": 5.3, "unit": "fold"}]}, {"binder": "146R16 (ligand, Crude CHO-S supernatant, 3x spacer-FLAG tagged; The cell prints N: 131) FKIETTPESRYLAQIGDSVSLTCSTTGCESPFFFWRPLIDSPLNGKVTNEGTTSTLTMNPVSFGNEHSYLCTARCESRSLEKGIQVEIYSFPKDPEIHLSGPLEAGKPITVKCSVADVYPFDRLEIDLLKGDHLMKSQEFLEDADRKSLETKSLEVTFTPVIEDIGKVLVCRAKLHIDEMDSVPTVRQAVKELQVYISPGGGSDYKDDDDKGGGSDYKDDDDKGGGSDYKDDDDKGS", "values": [{"measurement": "fold weaker binding relative to 146R0 (KD(variant)/KD(146R0))", "value": 1.1, "unit": "fold"}]}, {"binder": "146R12 (ligand, Crude CHO-S supernatant, 3x spacer-FLAG tagged) FKIETTPESRYLAQIGDSVSLTCSTTGCESPFFSWRPLLDSPLNGKVTNEGTTSTLTMNPVSFGNEHSYLCTATCESRKLEKGIQVEIYSFPKDPEIHLSGPLEAGKPITVKCSVADVYPFDRLEIDLLKGDHLMKSQEFLEDADRKSLETKSLEVTFTPVIEDIGKVLVCRAKLHIDEMDSVPTVRQAVKELQVYISPGGGSDYKDDDDKGGGSDYKDDDDKGGGSDYKDDDDKGS", "values": [{"measurement": "fold weaker binding relative to 146R0 (KD(variant)/KD(146R0))", "value": 21.7, "unit": "fold"}]}, {"binder": "146R8 (ligand, Crude CHO-S supernatant, 3x spacer-FLAG tagged) FKIETTPESRYLAQIGDSVSLTCSTTGCESPLFFWRPLLDSPLNGKVTNEGTTSTLTMNPVSFGNEHSYLCTATCESRKLEKGIQVEIYSFPKDPEIHLSGPLEAGKPITVKCSVADVYPFDRLEIDLLKGDHLMKSQEFLEDADRKSLETKSLEVTFTPVIEDIGKVLVCRAKLHIDEMDSVPTVRQAVKELQVYISPGGGSDYKDDDDKGGGSDYKDDDDKGGGSDYKDDDDKGS", "values": [{"measurement": "fold weaker binding relative to 146R0 (KD(variant)/KD(146R0))", "value": 1.7, "unit": "fold"}]}, {"binder": "146R2 (ligand, Crude CHO-S supernatant, 3x spacer-FLAG tagged) FKIETTPESRYLAQIGDSVSLTCSTTGCESPLFSWRPLLDSPLNGKVTNEGTTSTLTMNPVSFGNEHSYLCTARCESRSLEKGIQVEIYSFPKDPEIHLSGPLEAGKPITVKCSVADVYPFDRLEIDLLKGDHLMKSQEFLEDADRKSLETKSLEVTFTPVIEDIGKVLVCRAKLHIDEMDSVPTVRQAVKELQVYISPGGGSDYKDDDDKGGGSDYKDDDDKGGGSDYKDDDDKGS", "values": [{"measurement": "fold weaker binding relative to 146R0 (KD(variant)/KD(146R0))", "value": 2.7, "unit": "fold"}]}, {"binder": "146R10 (ligand, Crude CHO-S supernatant, 3x spacer-FLAG tagged) FKIETTPESRYLAQIGDSVSLTCSTTGCESPFFFWRPLLDSPLNGKVTNEGTTSTLTMNPVSFGNEHSYLCTATCESRKLEKGIQVEIYSFPKDPEIHLSGPLEAGKPITVKCSVADVYPFDRLEIDLLKGDHLMKSQEFLEDADRKSLETKSLEVTFTPVIEDIGKVLVCRAKLHIDEMDSVPTVRQAVKELQVYISPGGGSDYKDDDDKGGGSDYKDDDDKGGGSDYKDDDDKGS", "values": [{"measurement": "fold weaker binding relative to 146R0 (KD(variant)/KD(146R0))", "value": 2.7, "unit": "fold"}]}, {"binder": "146R14 (ligand, Crude CHO-S supernatant, 3x spacer-FLAG tagged) FKIETTPESRYLAQIGDSVSLTCSTTGCESPLFFWRPLIDSPLNGKVTNEGTTSTLTMNPVSFGNEHSYLCTARCESRKLEKGIQVEIYSFPKDPEIHLSGPLEAGKPITVKCSVADVYPFDRLEIDLLKGDHLMKSQEFLEDADRKSLETKSLEVTFTPVIEDIGKVLVCRAKLHIDEMDSVPTVRQAVKELQVYISPGGGSDYKDDDDKGGGSDYKDDDDKGGGSDYKDDDDKGS", "values": [{"measurement": "fold weaker binding relative to 146R0 (KD(variant)/KD(146R0))", "value": 1.5, "unit": "fold"}]}, {"binder": "146R19 (ligand, Crude CHO-S supernatant, 3x spacer-FLAG tagged) FKIETTPESRYLAQIGDSVSLTCSTTGCESPFFFWRPQIDSPLNGKVTNEGTTSTLTMNPVSFGNEHSYLCTARCESRKLEKGIQVEIYSFPKDPEIHLSGPLEAGKPITVKCSVADVYPFDRLEIDLLKGDHLMKSQEFLEDADRKSLETKSLEVTFTPVIEDIGKVLVCRAKLHIDEMDSVPTVRQAVKELQVYISPGGGSDYKDDDDKGGGSDYKDDDDKGGGSDYKDDDDKGS", "values": [{"measurement": "fold weaker binding relative to 146R0 (KD(variant)/KD(146R0))", "value": 40, "unit": "fold"}]}, {"binder": "146R9 (ligand, Crude CHO-S supernatant, 3x spacer-FLAG tagged) FKIETTPESRYLAQIGDSVSLTCSTTGCESPFFFWRPQLDSPLNGKVTNEGTTSTLTMNPVSFGNEHSYLCTARCESRSLEKGIQVEIYSFPKDPEIHLSGPLEAGKPITVKCSVADVYPFDRLEIDLLKGDHLMKSQEFLEDADRKSLETKSLEVTFTPVIEDIGKVLVCRAKLHIDEMDSVPTVRQAVKELQVYISPGGGSDYKDDDDKGGGSDYKDDDDKGGGSDYKDDDDKGS", "values": [{"measurement": "fold weaker binding relative to 146R0 (KD(variant)/KD(146R0))", "value": 2, "unit": "fold"}]}, {"binder": "146R11 (ligand, Crude CHO-S supernatant, 3x spacer-FLAG tagged) FKIETTPESRYLAQIGDSVSLTCSTTGCESPLFFWRPQLDSPLNGKVTNEGTTSTLTMNPVSFGNEHSYLCTATCESRKLEKGIQVEIYSFPKDPEIHLSGPLEAGKPITVKCSVADVYPFDRLEIDLLKGDHLMKSQEFLEDADRKSLETKSLEVTFTPVIEDIGKVLVCRAKLHIDEMDSVPTVRQAVKELQVYISPGGGSDYKDDDDKGGGSDYKDDDDKGGGSDYKDDDDKGS", "values": [{"measurement": "fold weaker binding relative to 146R0 (KD(variant)/KD(146R0))", "value": 25.9, "unit": "fold"}]}, {"binder": "146R1 (ligand, Crude CHO-S supernatant, 3x spacer-FLAG tagged) FKIETTPESRYLAQIGDSVSLTCSTTGCESPFFFWRPLLDSPLNGKVTNEGTTSTLTMNPVSFGNEHSYLCTARCESRSLEKGIQVEIYSFPKDPEIHLSGPLEAGKPITVKCSVADVYPFDRLEIDLLKGDHLMKSQEFLEDADRKSLETKSLEVTFTPVIEDIGKVLVCRAKLHIDEMDSVPTVRQAVKELQVYISPGGGSDYKDDDDKGGGSDYKDDDDKGGGSDYKDDDDKGS", "values": [{"measurement": "fold weaker binding relative to 146R0 (KD(variant)/KD(146R0))", "value": 1.1, "unit": "fold"}]}, {"binder": "146R5 (ligand, Crude CHO-S supernatant, 3x spacer-FLAG tagged) FKIETTPESRYLAQIGDSVSLTCSTTGCESPLFFWRPLIDSPLNGKVTNEGTTSTLTMNPVSFGNEHSYLCTARCESRSLEKGIQVEIYSFPKDPEIHLSGPLEAGKPITVKCSVADVYPFDRLEIDLLKGDHLMKSQEFLEDADRKSLETKSLEVTFTPVIEDIGKVLVCRAKLHIDEMDSVPTVRQAVKELQVYISPGGGSDYKDDDDKGGGSDYKDDDDKGGGSDYKDDDDKGS", "values": [{"measurement": "fold weaker binding relative to 146R0 (KD(variant)/KD(146R0))", "value": 1.2, "unit": "fold"}]}, {"binder": "146R6 (ligand, Crude CHO-S supernatant, 3x spacer-FLAG tagged) FKIETTPESRYLAQIGDSVSLTCSTTGCESPLFFWRPLLDSPLNGKVTNEGTTSTLTMNPVSFGNEHSYLCTATCESRSLEKGIQVEIYSFPKDPEIHLSGPLEAGKPITVKCSVADVYPFDRLEIDLLKGDHLMKSQEFLEDADRKSLETKSLEVTFTPVIEDIGKVLVCRAKLHIDEMDSVPTVRQAVKELQVYISPGGGSDYKDDDDKGGGSDYKDDDDKGGGSDYKDDDDKGS", "values": [{"measurement": "fold weaker binding relative to 146R0 (KD(variant)/KD(146R0))", "value": 1.8, "unit": "fold"}]}, {"binder": "146R0 (Clone 146 with three spacer-FLAG tags, CHO-S supernatant) (ligand, assayed as concentrated, filtered crude supernatant) FKIETTPESRYLAQIGDSVSLTCSTTGCESPLFFWRPLLDSPLNGKVTNEGTTSTLTMNPVSFGNEHSYLCTARCESRSLEKGIQVEIYSFPKDPEIHLSGPLEAGKPITVKCSVADVYPFDRLEIDLLKGDHLMKSQEFLEDADRKSLETKSLEVTFTPVIEDIGKVLVCRAKLHIDEMDSVPTVRQAVKELQVYISPGGGSDYKDDDDKGGGSDYKDDDDKGGGSDYKDDDDK", "values": [{"measurement": "fold weaker binding relative to 146R0 (KD(variant)/KD(146R0))", "value": 1, "unit": "fold"}]}]}
